Measurements: US20200407435A1 (Boehringer Ingelheim, published 2020)
“And” between values parts separate entries of the source, which are not always exact repeats. Equal entries are not always repeated.

Experiments:
[1] = target: T1, rhAngiopoietin-2 (R&D systems cat 623-AN/CF) (human, UniProt O15123 19-496, limits assumed); assay: cell-based or functional assay
T1 sequence (looked up): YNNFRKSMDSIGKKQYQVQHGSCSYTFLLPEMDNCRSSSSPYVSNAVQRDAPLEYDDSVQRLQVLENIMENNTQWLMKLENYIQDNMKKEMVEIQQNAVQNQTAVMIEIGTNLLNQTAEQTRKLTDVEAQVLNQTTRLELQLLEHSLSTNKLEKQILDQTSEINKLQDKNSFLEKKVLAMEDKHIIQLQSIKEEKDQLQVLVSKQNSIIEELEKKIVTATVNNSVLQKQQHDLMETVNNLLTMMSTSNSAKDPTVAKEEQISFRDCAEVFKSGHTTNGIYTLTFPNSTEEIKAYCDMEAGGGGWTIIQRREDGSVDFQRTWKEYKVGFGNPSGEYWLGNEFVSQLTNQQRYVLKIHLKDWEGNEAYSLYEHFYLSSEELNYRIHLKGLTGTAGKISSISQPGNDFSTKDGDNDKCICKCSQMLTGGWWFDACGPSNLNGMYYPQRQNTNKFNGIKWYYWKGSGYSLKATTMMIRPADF

[2] = target: T2, human ANGPT2 (SPR analyte) (human, UniProt O15123 275-496, limits assumed); assay: SPR (ProteOn XPR36), antibody captured on Protein A/G, ANGPT2 as analyte, 1:1 Langmuir fit
T2 construct: domain: FLD domain; also called HuANGPT2; human ANGPT2 FLD domain
T2 sequence (looked up): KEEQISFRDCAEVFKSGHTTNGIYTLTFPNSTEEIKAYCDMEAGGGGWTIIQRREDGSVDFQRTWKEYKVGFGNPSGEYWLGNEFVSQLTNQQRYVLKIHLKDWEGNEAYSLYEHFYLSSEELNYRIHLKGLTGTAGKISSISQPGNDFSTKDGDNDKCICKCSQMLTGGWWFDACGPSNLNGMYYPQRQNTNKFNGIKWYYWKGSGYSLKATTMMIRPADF
Description: (§1) The binding affinity to the various ANGPT2 analytes is determined by surface plasmon resonance (SPR) using a ProteOn XPR36 (Bio-Rad). Unless otherwise stated, all reagents are obtained from Bio-Rad. The running buffer for all assays and dilutions (except where stated) is phosphate buffered saline (PBS)/ethylenediamine tetraacetic acid (EDTA) with 0.01% Tween20 (PBS-T-EDTA). PBS-T-EDTA is prepared by adding 100 μl of 100% Tween20 to 2 L of PBS-T-EDTA with an initial concentration of 0.005% Tween20 to make a final Tween20 concentration of 0.01%. The general linearized model (GLM) sensorchip is normalized, pre-conditioned, and activated with an equal mixture of 1-ethyl-3-[3-dimethylaminopropyl]carbodiimide (EDC)/N-hydroxysulfosuccinimide (s-NHS) in the horizontal direction for 300 sec at a flow rate of 30 μl/min. Immobilization is then is done with Recombinant Protein A/G (Thermo Scientific) (60 μg/ml in 10 mM acetate pH 4.5) in the horizontal direction for 300 sec at a flowrate of 30 μl/min resulting in about 4370-4875 response units (RUs) of Protein A/G on the surface. The sensorchip is then deactivated with 1M ethanolamine HCl in the horizontal direction for 300 sec at a flowrate of 30 μl/min. The sensorchip is stabilized with 18 sec of 0.85% phosphoric acid at a flowrate of 100 μl/min 3 times horizontally and 3 times vertically.
(§2) Each ANGPT2 antibody is captured on the Protein A/G surface vertically for 300 sec at a flowrate of 30 μl/min resulting in a capture level of about 2500 RU. The baseline is stabilized by injecting PBS-T-EDTA for 60 sec at a flowrate of 100 μl/min horizontally with dissociation of 120 sec. The analyte (e.g., HuANGPT2) is injected horizontally over the captured antibody for 300 sec at a flowrate of 30 μl/min and a dissociation for 1800 sec. […] The surface is regenerated by injecting 0.85% phosphoric acid for 18 sec at a flowrate of 100 μl/min one time horizontally and one time vertically. PBS-T-EDTA is injected for 60 sec at a flowrate of 100 μl/min one time vertically and one time horizontally.
(§3) The interspot (interactions with sensor surface) and blank (PBS-T-EDTA with 0.01% Tween20 or 0 nM of analyte (here HuANGPT2)) are subtracted from the raw data.

[3] = target: T3, cynomolgus (cyno) ANGPT2 (cynomolgus, UniProt A0A2K5VNX6 275-496); assay: as above
T3 construct: domain: FLD domain; also called cyno ANGPT2 FLD domain
T3 sequence: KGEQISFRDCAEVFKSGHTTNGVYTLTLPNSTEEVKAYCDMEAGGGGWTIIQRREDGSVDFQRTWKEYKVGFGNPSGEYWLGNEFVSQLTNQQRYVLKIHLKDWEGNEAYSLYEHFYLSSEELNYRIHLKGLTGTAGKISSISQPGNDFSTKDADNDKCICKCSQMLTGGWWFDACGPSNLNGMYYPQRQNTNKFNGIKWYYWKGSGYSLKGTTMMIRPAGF
Description: as §1, §2, §3

[4] = target: T4, Human ANGPT2 Dimer (CC-FLD) (human, UniProt O15123 74-496, limits assumed); assay: flow cytometry blocking assay: antibody titrated against His-tagged human ANGPT2 dimer (CC-FLD) binding to HEK293 human Tie2 cells
T4 construct: domain: CC-FLD; also called ANGPT2 protein with His-tag; not shown: His-tag
T4 sequence (looked up): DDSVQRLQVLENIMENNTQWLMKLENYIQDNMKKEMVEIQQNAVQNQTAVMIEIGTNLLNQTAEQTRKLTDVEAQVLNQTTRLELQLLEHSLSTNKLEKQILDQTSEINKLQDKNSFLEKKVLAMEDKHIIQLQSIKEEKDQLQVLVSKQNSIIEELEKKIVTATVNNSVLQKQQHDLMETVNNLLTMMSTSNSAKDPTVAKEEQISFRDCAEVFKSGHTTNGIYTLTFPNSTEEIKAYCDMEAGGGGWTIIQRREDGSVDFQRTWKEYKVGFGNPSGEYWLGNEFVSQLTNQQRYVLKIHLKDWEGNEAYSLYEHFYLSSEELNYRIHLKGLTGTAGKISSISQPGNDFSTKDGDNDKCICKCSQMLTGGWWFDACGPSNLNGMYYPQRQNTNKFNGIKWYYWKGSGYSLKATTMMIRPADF
Description: Human ANGPT2 Dimer (CC-FLD) is pre-incubated with the testing antibodies. The ANGPT2/Antibody mixture is then incubated with HEK293 human Tie2 cells at 4° C. After washing, the cells are stained with anti-His-AF647 (from GenScript) for detection of the His-tag on the ANGPT2 protein. The binding of the secondarily labelled ANGPT2 to human Tie2 cells is detected by FLOW cytometry. The average of the duplicate values for each concentration point is used to derive the curve fit graphs. Antibodies that prevent ANGPT2 from binding to the Tie2 cells are considered blocking antibodies. The results are shown in FIGS. 3A-3G and the EC50 values are shown in Table 5 based on the average of duplicate values.

[5] = target: T5, rat ANGPT2 (rat, UniProt O35462 275-496, limits assumed); assay: SPR (ProteOn XPR36), antibody captured on Protein A/G, rat ANGPT2 as analyte
T5 construct: domain: FLD domain; also called rat ANGPT2 FLD domain
T5 sequence (looked up): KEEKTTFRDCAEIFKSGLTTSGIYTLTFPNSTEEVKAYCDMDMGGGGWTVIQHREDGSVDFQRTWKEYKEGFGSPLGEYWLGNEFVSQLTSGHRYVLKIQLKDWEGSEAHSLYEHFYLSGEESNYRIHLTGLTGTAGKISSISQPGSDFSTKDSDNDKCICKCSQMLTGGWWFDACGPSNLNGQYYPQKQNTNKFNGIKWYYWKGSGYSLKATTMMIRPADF
Description: as §1
as §2, with “horizontally. […]” for “horizontally.”

B1: LC06 (Roche) (antibody, human IgG1, lambda, V domains shown)
VH: not shown
VL: QPGLTQPPSVSVAPGQTARITCGGNNIGSKSVHWYQQKPGQAPVLVVYDDSDRPSGIPERFSGSNSGNTATLTISRVEAGDEADYYCQVWDSSSDHYVFGTGTKVTVLG
notes: Based on the description in U.S. Pat. No. 9,340,609
Tie2 phosphorylation functional assay, EC50 [1]: 1.3 nM | Kd [2]: 12 nM

B2: chimeric lead CL-209881 (antibody, V domains shown)
VH: QVQLKQSGAELVKPGSSVKISCRASGYIFIDYFINWVKQRPGQGLEWIGKIGPGSGSSSSNEKFKGKATLTADKSSSTAYMQLSSLTSEDSAVYFCAREAFDYDGDYYGMAYWGQGTSVTVSS
VL: DIVMTQSPSSLSVSAGEKVTMSCKSSQSLLNSGNQKNFLAWYQQKPGQPPKLLIYGASTRESGVPDRFTGSGSGTDFTLTITSVQAEDLAVYYCQNDHSYPITFGSGTKLEIK
notes: Chimeric antibody with murine variable domains; the constant regions of the tested antibody are not
Kd [2]: 0.155 nM | koff [2]: 2.34e-05 s⁻¹ | kon [2]: 151000 M⁻¹ s⁻¹ | Kd [3]: 0.24 nM | koff [3]: 3.93e-05 s⁻¹ | kon [3]: 164000 M⁻¹ s⁻¹

B3: MEDI3617 analog (Medimmune) (antibody, human IgG1, kappa, V domains shown)
VH: QVQLVESGGGVVQPGRSLRLSCAASGFTFTNYGMHWVRQAPGKGLEWVAVISHDGNNKYYVDSVKGRFTISRDNSKNTLYLQMNSLRAEDTAVYYCAREGIDFWSGLNWFDPWGQGTLVTVSS
VL: EIVLTQSPGTLSLSPGERATLSCRASQSITGSYLAWYQQKPGQAPRLLITGASSWATGIPDRFSGSGSGTDFTLTISRLEPEDFAVYYCQQYSSSPITFGQGTRLEIKR
notes: Based on the description in U.S. Pat. No. 8,507,656; also called MED3617 analog; analog of MED3617
Tie2 phosphorylation functional assay, EC50 [1]: 2.7 nM | Kd [2]: 27 nM | koff [2]: 0.0166 s⁻¹ | kon [2]: 614000 M⁻¹ s⁻¹

B4: ANGPT2-opt-31 (humanized) (antibody, human IgG1, kappa, V domains shown)
VH: QVQLVQSGAEVKKPGSSVKVSCKASGYIFIDYFINWVRQAPGQGLEWMGKIGPGSGSSSSNEKFKGRVTITADKSTSTAYMELSSLRSEDTAVYYCAREAFDYDGDYYGMAYWGQGTLVTVSS
VL: EIVMTQSPATLSVSPGERATLSCKSSQSLLSSGNQKSFLAWYQQKPGQAPRLLIYGASTRESGIPARFSGSGSGTEFTLTISSLQSEDFAVYYCQNDHSYPITFGQGTKLEIKR
notes: also called Ang2-opt-31
Tie2 phosphorylation functional assay, EC50 [1]: 3.8 nM and 4.4 nM | Kd [2]: 0.091 nM | koff [2]: 1.14e-05 s⁻¹ | kon [2]: 125000 M⁻¹ s⁻¹ | Kd [3]: 0.145 nM | koff [3]: 1.96e-05 s⁻¹ | kon [3]: 135000 M⁻¹ s⁻¹ | EC50 [4]: 13 nM

B5: ANGPT2-opt-19 (humanized) (antibody, human IgG1, kappa, V domains shown)
VH: QVQLVQSGAEVKKPGSSVKVSCKASGYIFIDYFINWVRQAPGQGLEWMGKIGPGSGSSSSNEKFKGRVTITADKSTSTAYMELSSLRSEDTAVYYCAREAFDYDGDYYGMAYWGQGTLVTVSS
VL: EIVMTQSPATLSVSPGERATLSCRASQSVLSSGNQKSFLAWYQQKPGQAPRLLIYGASTRETGIPARFSGSGSGTEFTLTISSLQSEDFAVYYCQQDHSYPITFGQGTKLEIKR
notes: also called Ang2-opt-19
Tie2 phosphorylation functional assay, EC50 [1]: 5 nM and 4.6 nM | Kd [5]: ≥ 118 nM | Kd [2]: 0.712 nM | koff [2]: 5.83e-05 s⁻¹ | kon [2]: 81800 M⁻¹ s⁻¹ | Kd [3]: 0.844 nM | koff [3]: 7.4e-05 s⁻¹ | kon [3]: 87700 M⁻¹ s⁻¹ | EC50 [4]: 15.1 nM

B6: ANGPT2-opt-2 (humanized) (antibody, human IgG1, kappa, V domains shown)
VH: QVQLVQSGAEVKKPGSSVKVSCKASGYIFIEYFINWVRQAPGQGLEWMGKIGPGSGSSSSNEKFKGRVTITADKSTSTAYMELSSLRSEDTAVYYCAREAFDYEGDYYGMAYWGQGTLVTVSS
VL: EIVMTQSPATLSVSPGERATLSCKSSQSLLASGNQKNFLAWYQQKPGQAPRLLIYGASTRESGIPARFSGSGSGTEFTLTISSLQSEDFAVYYCQNDHSYPITFGQGTKLEIKR
notes: also called Ang2-opt-2; ANGP12-opt-2
Tie2 phosphorylation functional assay, EC50 [1]: 1.8 nM and 1.9 nM | Kd [5]: ≥ 118 nM | Kd [2]: 0.649 nM | koff [2]: 8.11e-05 s⁻¹ | kon [2]: 125000 M⁻¹ s⁻¹ | Kd [3]: 0.626 nM | koff [3]: 8.45e-05 s⁻¹ | kon [3]: 135000 M⁻¹ s⁻¹ | EC50 [4]: 14.8 nM

B7: ANGPT2-opt-1 (humanized) (antibody, human IgG1, kappa, V domains shown)
VH: QVQLVQSGAEVKKPGSSVKVSCKASGYIFIDYFINWVRQAPGQGLEWMGKIGPGSGSSSSNEKFKGRVTITADKSTSTAYMELSSLRSEDTAVYYCAREAFDYEGDYYGMAYWGQGTLVTVSS
VL: EIVMTQSPATLSVSPGERATLSCKSSQSLLASGNQKNFLAWYQQKPGQAPRLLIYGASTRESGIPARFSGSGSGTEFTLTISSLQSEDFAVYYCQNDHSYPITFGQGTKLEIKR
notes: also called Ang2-opt-1
Tie2 phosphorylation functional assay, EC50 [1]: 3 nM and 3.2 nM | Kd [2]: 0.294 nM | koff [2]: 4.25e-05 s⁻¹ | kon [2]: 144000 M⁻¹ s⁻¹ | Kd [3]: 0.36 nM | koff [3]: 5.48e-05 s⁻¹ | kon [3]: 152000 M⁻¹ s⁻¹ | EC50 [4]: 13.2 nM

B8: Nesvacumab analog (Regeneron) (antibody, V domains shown)
VH: EVQLVESGGGLVQPGGSLRLSCAASGFTFSSYDIHWVRQATGKGLEWVSAIGPAGDTYYPGSVKGRFTISRENAKNSLYLQMNSLRAGDTAVYYCARGLITFGGLIAPFDYWGQGTLVTVSS
VL: EIVLTQSPGTLSLSPGERATLSCRASQSVSSTYLAWYQQKPGQAPRLLIYGASSRATGIPDRFSGSGSGTDFTLTISRLEPEDFAVYYCQHYDNSQTFGQGTKVEIKR
notes: also called analog of REGN910 (nesvacumab); Nevescumab analog
Kd [5]: 0.159 nM
